Source: publication PMC3642142
pKd: −log10 of the molar value.

Target: IAEDANS-labeled K75C mutant calmodulin (UniProt P0DP23)
Test: other fluorescence titration; IAEDANS emission (excitation 340 nm, emission 475 nm) of about 1 nM I-CaM; LSEL15 titrated; 10 mM MOPS pH 7.4, 100 mM NaCl, 0.3 mM CaCl2, 0.1 mg/ml BSA

Substance: Peptide LSEL15 (L-selectin residues Ala311-Lys325)
- pKd: 8.42
